Data: paper PMC9528458 (Science signaling, 2022)
Like-named read-outs stand apart in the source and are kept apart here.

What was measured:
[1] = biological target: T1, mouse Fzd4 (residues 41-537), monomeric, in lipid nanodiscs (mouse, UniProt Q61088 41-537); test: BLI
T1 sequence (looked up): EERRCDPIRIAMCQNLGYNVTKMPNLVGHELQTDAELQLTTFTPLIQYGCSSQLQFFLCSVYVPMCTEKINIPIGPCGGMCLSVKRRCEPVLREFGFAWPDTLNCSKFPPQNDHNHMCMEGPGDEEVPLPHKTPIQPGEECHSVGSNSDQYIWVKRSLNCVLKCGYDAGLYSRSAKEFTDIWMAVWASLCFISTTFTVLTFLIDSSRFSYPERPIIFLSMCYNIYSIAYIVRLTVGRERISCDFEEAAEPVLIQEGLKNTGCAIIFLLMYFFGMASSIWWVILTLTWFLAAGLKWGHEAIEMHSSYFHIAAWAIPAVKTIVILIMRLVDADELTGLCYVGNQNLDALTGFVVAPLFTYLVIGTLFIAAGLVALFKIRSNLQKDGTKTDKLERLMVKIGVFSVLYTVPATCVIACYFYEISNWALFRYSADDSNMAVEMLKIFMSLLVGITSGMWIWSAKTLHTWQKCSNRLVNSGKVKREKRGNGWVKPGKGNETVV

[2] = biological target: T1, mouse Fzd4 (residues 41-537), …; test: BLI; remark: listed apart in the source
[3] = biological target: T1, mouse Fzd4 (residues 41-537), …; test: BLI; remark: listed apart in the source
[4] = biological target: T1, mouse Fzd4 (residues 41-537), …; test: BLI; remark: listed apart in the source
[5] = biological target: pre-formed xWnt8-FZD5 complex in nanodiscs (human | Xenopus laevis, UniProt Q13467 27-585; P28026 23-358); test: BLI
Sequence of pre-formed xWnt8-FZD5 complex in nanodiscs (Q13467 27-585, one chain of several): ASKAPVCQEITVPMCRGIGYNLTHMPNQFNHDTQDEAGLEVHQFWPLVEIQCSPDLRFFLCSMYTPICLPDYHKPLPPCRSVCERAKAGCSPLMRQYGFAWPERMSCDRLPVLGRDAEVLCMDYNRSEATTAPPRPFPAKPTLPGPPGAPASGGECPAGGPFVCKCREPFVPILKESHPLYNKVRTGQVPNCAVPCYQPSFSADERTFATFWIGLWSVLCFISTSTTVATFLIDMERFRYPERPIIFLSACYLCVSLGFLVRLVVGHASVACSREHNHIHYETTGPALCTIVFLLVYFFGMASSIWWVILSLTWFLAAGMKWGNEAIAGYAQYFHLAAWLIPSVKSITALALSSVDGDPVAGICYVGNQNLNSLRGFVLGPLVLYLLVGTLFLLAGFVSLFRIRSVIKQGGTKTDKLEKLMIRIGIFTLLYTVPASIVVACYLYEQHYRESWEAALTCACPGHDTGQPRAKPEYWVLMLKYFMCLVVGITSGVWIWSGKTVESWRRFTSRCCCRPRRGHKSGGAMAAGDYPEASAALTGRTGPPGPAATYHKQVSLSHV

[6] = biological target: T2, human FZD5 (residues 27-585), in lipid nanodiscs (human, UniProt Q13467 27-585); test: BLI
T2 sequence (Q13467 27-585): as the sequence (Q13467 27-585, one chain of several) above

[7] = biological target: human FZD7 (residues 33-574), in lipid nanodiscs (human, UniProt O75084 33-574); test: BLI
[8] = biological target: T1, mouse Fzd4 (residues 41-537), …; test: BLI; remark: listed apart in the source
[9] = biological target: T1, mouse Fzd4 (residues 41-537), …; test: BLI; remark: listed apart in the source
[10] = biological target: T1, mouse Fzd4 (residues 41-537), …; test: SEC
[11] = biological target: T2, human FZD5 (residues 27-585), in lipid …; test: SEC

B1: DEP domain of mouse Dvl2 (residues 416-510) (domain or fragment, UniProt Q60838 416-510, looked up)
chain: GLSVHMDMASVTKAMAAPESGLEVRDRMWLKITIPNAFLGSDVVDWLYHHVEGFPERREARKYASGLLKAGLIRHTVNKITFSEQCYYVFGDLSG
Kd [1]: ~2000 nM
Kd [2]: 1200 nM
Kd [3]: ~40 nM
Kd [4]: > 10000 nM
binding result [5]: binds
binding result [6]: binds
binding result [7]: binds

B2: DEP domain of mouse Dvl2 bearing a G436P mutation (domain or fragment, UniProt Q60838 416-510, looked up)
chain: GLSVHMDMASVTKAMAAPESPLEVRDRMWLKITIPNAFLGSDVVDWLYHHVEGFPERREARKYASGLLKAGLIRHTVNKITFSEQCYYVFGDLSG
binding result [8]: binds

B3: human Norrin (ligand, UniProt Q00604 25-133, looked up)
chain: KTDSSFIMDSDPRRCMRHHYVDSISHPLYKCSSKMVLLARCEGHCSQASRSEPLVSFSTVLKQPFRSSCHCCRPQTSKLKALRLRCSGGMRLTATYRYILSCHCEECNS
binding result [9]: binds

B4: Xenopus laevis Wnt8 (ligand, UniProt P28026 23-358, looked up)
chain: AWSVNNFLMTGPKAYLTYSASVAVGAQNGIEECKYQFAWERWNCPESTLQLATHNGLRSATRETSFVHAISSAGVMYTLTRNCSMGDFDNCGCDDSRNGRIGGRGWVWGGCSDNAEFGERISKLFVDGLETGQDARALMNLHNNEAGRLAVKETMKRTCKCHGISGSCSIQTCWLQLAEFRDIGNHLKIKHDQALKLEMDKRKMRSGNSADNRGAIADAFSSVAGSELIFLEDSPDYCLKNISLGLQGTEGRECLQSGKNLSQWERRSCKRLCTDCGLRVEEKKTEIISSCNCKFHWCCTVKCEQCKQVVIKHFCARRERDSNMLNTKRKNRGHRR
binding result [10]: binds
binding result [11]: binds
